Measurements reported in patent US20100043097A1 (CARNEGIE INSTITUTION OF WASHINGTON, published 2010).

B1: BRK1-myc (enzyme)
chain: GCCQSLFSGDNPLGKDGVQPQPLSQNNHGGATTADNGGSGGASGVGGGGGGGGIPSFSEFSFADLKAATNNFSSDNIVSESGEKAPNLVYKGRLQNRRWIAVKKFTKMAWPEPKQFAEEAWGVGKLRHNRLANLIGYCCDGDERLLVAEFMPNDTLAKHLFHWENQTIEWAMRLRVGYYIAEALDYCSTEGRPLYHDLNAYRVLFDEDGDPRLSCFGLMKNSRDGKSYSTNLAYTPPEYLRNGRVTPESVTYSFGTVLLDLLSGKHIPPSHALDMIRGKNIILLMDSHLEGKFSTEEATVVVELASQCLQYEPRERPNTKDLVATLAPLQTKSDVPSYVMLGIKKQEEAPSTPQRPLSPLGEACSRMDLTAIHQILVMTHYRDDEGTNELSFQEWTQQMKDMLDARKRGDQSFREKDFKTAIDCYSQFIDVGTMVSPTVFGRRSLCYLLCDQPDAALRDAMQAQCVYPDWPTAFYMQSVALAKLNMNTDAADMLNEAAQLEEKRQRGGRGS
notes: Full-length BRK1 with C-terminal 4x Myc tag, expressed from the 35S promoter in Arabidopsis; also called BRK1-myc protein; not shown: 4x Myc tag of the pGWB17 vector
B2: BRI1-GFP (receptor, Arabidopsis thaliana, UniProt O22476 24-1196, looked up)
chain: FQASPSQSLYREIHQLISFKDVLPDKNLLPDWSSNKNPCTFDGVTCRDDKVTSIDLSSKPLNVGFSAVSSSLLSLTGLESLFLSNSHINGSVSGFKCSASLTSLDLSRNSLSGPVTTLTSLGSCSGLKFLNVSSNTLDFPGKVSGGLKLNSLEVLDLSANSISGANVVGWVLSDGCGELKHLAISGNKISGDVDVSRCVNLEFLDVSSNNFSTGIPFLGDCSALQHLDISGNKLSGDFSRAISTCTELKLLNISSNQFVGPIPPLPLKSLQYLSLAENKFTGEIPDFLSGACDTLTGLDLSGNHFYGAVPPFFGSCSLLESLALSSNNFSGELPMDTLLKMRGLKVLDLSFNEFSGELPESLTNLSASLLTLDLSSNNFSGPILPNLCQNPKNTLQELYLQNNGFTGKIPPTLSNCSELVSLHLSFNYLSGTIPSSLGSLSKLRDLKLWLNMLEGEIPQELMYVKTLETLILDFNDLTGEIPSGLSNCTNLNWISLSNNRLTGEIPKWIGRLENLAILKLSNNSFSGNIPAELGDCRSLIWLDLNTNLFNGTIPAAMFKQSGKIAANFIAGKRYVYIKNDGMKKECHGAGNLLEFQGIRSEQLNRLSTRNPCNITSRVYGGHTSPTFDNNGSMMFLDMSYNMLSGYIPKEIGSMPYLFILNLGHNDISGSIPDEVGDLRGLNILDLSSNKLDGRIPQAMSALTMLTEIDLSNNNLSGPIPEMGQFETFPPAKFLNNPGLCGYPLPRCDPSNADGYAHHQRSHGRRPASLAGSVAMGLLFSFVCIFGLILVGREMRKRRRKKEAELEMYAEGHGNSGDRTANNTNWKLTGVKEALSINLAAFEKPLRKLTFADLLQATNGFHNDSLIGSGGFGDVYKAILKDGSAVAIKKLIHVSGQGDREFMAEMETIGKIKHRNLVPLLGYCKVGDERLLVYEFMKYGSLEDVLHDPKKAGVKLNWSTRRKIAIGSARGLAFLHHNCSPHIIHRDMKSSNVLLDENLEARVSDFGMARLMSAMDTHLSVSTLAGTPGYVPPEYYQSFRCSTKGDVYSYGVVLLELLTGKRPTDSPDFGDNNLVGWVKQHAKLRISDVFDPELMKEDPALEIELLQHLKVAVACLDDRAWRRPTMVQVMAMFKEIQAGSGIDSQSTIRSIEDGGFSTIEMVDMSIKEVPEGKL
notes: Expressed in transgenic Arabidopsis; solubilised microsomal proteins used for co-immunoprecipitation; also called BRI1-GFP protein expressed from the BRI1 promoter; not shown: GFP tag

Columns and labels:
[1] = biological target: B2; experiment: co-immunoprecipitation with anti-GFP antibodies after 100 nM brassinolide for 30 min, anti-myc immunoblot (FIG. 2D)
[2] = biological target: T1, Protein A bead alone (UniProt P38507 37-477); experiment: immunoprecipitation control from microsomal proteins, anti-GFP immunoblot
T1 construct: IP control without antibody; also called Protein A Sepharose beads
Method: Microsomal proteins (Input, lane 1) from det2 mutant plants expressing BRI1-GFP under the control of BRI1 promoter were immunoprecipitated (IP) using polyclonal anti-BRK1 antibodies affinity-purified using an BRK1 antigen column (lane 3). Protein A bead alone was used as IP control (lane 2). Immunoblots were probed using anti-GFP antibodies. BRI1-GFP can be pulled down by anti-BRI1 antibody but not by protein A bead.
All procedures were performed at 4° C. Rosette leaves of 3-week-old Arabidopsis plants were homogenized with mortar and pestle in the grinding buffer (20 mM HEPES, pH 7.5, 40 mM KCl, 250 mM sucrose, 5 mM MgCl₂ and protein inhibitors) at a ratio of 3 mL buffer per gram of tissue. Homogenate was filtered through 2 layers of Miracloth (CalBiochem, La Jolla, Calif.), and centrifuged at 10,000 g for 10 minutes. The supernatant was further centrifuged at 100,000 g for 60 min to pellet the microsomal fraction. Microsomes were re-suspended in 0.5 mL grinding buffer and sonicated for 10 sec. Triton X-100 was added to a final concentration of 1%. After mixing, the extracts were centrifuged at 20,000 g for 10 min. Supernatant was diluted 5 times with grinding buffer to reduce Triton X-100 to 0.2%. […] Samples were analyzed by SDS-PAGE and immunoblotting.

## B1
[1]
  amount of co-immunoprecipitated BRK1-myc after BR treatment relative to the untreated sample: 46 % of the untreated sample

## B2
[2]
  binding result: no binding
